Assay [1] deals with Human PD-1 extracellular domain, mFc tag (human) (UniProt Q15116). Kind of assay: ELISA competition on coated hPro1.ECD.mFc; competitor hPro1L2.ECD.His; experiment 2.
In assay [2] the target is Cynomolgus monkey PD-1 on transiently transfected 293F cells (cynomolgus monkey). Kind of assay: FACS on cyno PD-1 transfected 293F cells, experiment 2.
Assay [3] deals with Cynomolgus PD-1 (soluble analyte in SPR, Table 11) (cynomolgus) (UniProt B0LAJ3). Kind of assay: SPR Biacore 8K; antibody captured on anti-human Fc chip, PD-1 injected; 1:1 fit.
Assay [4] concerns the target Human PD-1 (soluble analyte in SPR, Table 11) (human) (UniProt Q15116). Described as above.
In assay [5] the target is Cynomolgus PD-1 extracellular domain, hFc tag (cynomolgus) (UniProt B0LAJ3). Kind of assay: ELISA competition on coated cynoPro1.ECD.hFc; competitor cynoProL1.ECD.hFc.biotin 2.5 µg/mL; experiment 2.
In assay [6] the target is Human PD-1 on CHO-S cells (human) (UniProt Q15116). Kind of assay: FACS on CHO-S.hPro1.C6 cells.
The target in assay [7] is Human PD-1 extracellular domain, mFc tag (human) (UniProt Q15116). Kind of assay: ELISA competition on coated hPro1.ECD.mFc; competitor hPro1L2.ECD.His; experiment 1.
The target in assay [8] is Human PD-1 on CHO-S cells (human) (UniProt Q15116). Kind of assay: FACS competition on CHO-S.hPro1.C6 cells; competitor hProL1.ECD.mFc 5 µg/mL.
Assay [9] has as its target Cynomolgus PD-1 extracellular domain, hFc tag (cynomolgus) (UniProt B0LAJ3). Kind of assay: ELISA competition on coated cynoPro1.ECD.hFc; competitor cynoProL1.ECD.hFc.biotin 2.5 µg/mL; experiment 1.
Assay [10] has as its target Cynomolgus monkey PD-1 on transiently transfected 293F cells (cynomolgus monkey). Kind of assay: FACS on cyno PD-1 transfected 293F cells, experiment 1.

The text below walks through data of patent US20240301067A1.

Sequence of Human PD-1 (soluble analyte in SPR, Table 11) (human) (Q15116 25-167 limits assumed): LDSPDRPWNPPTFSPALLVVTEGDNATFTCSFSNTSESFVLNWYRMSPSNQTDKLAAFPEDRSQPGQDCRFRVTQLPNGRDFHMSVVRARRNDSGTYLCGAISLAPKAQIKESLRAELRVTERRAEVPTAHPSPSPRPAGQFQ
Sequence of Cynomolgus PD-1 (soluble analyte in SPR, Table 11) (cynomolgus) (B0LAJ3 entry or part of it limits assumed): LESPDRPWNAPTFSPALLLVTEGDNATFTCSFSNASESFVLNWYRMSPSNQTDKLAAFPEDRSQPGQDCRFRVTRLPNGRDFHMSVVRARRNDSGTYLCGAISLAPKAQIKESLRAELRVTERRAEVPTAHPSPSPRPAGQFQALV
Sequence of Human PD-1 on CHO-S cells (human) (Q15116 25-288): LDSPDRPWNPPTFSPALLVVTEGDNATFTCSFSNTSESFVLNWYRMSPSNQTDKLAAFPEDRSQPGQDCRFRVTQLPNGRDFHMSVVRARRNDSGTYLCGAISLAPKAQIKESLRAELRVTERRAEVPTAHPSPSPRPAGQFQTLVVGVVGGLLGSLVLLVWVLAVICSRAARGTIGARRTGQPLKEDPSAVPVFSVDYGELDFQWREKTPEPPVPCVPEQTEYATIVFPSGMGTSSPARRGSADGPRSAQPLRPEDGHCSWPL
Sequence of Human PD-1 extracellular domain, mFc tag (human) (Q15116 25-170): as the sequence (B0LAJ3 entry or part of it limits assumed) above, with E2D, A10P, L19V, A35T, R75Q, A144T counted along it
Sequence of Cynomolgus PD-1 extracellular domain, hFc tag (cynomolgus) (B0LAJ3 entry or part of it limits assumed): as the sequence (B0LAJ3 entry or part of it limits assumed) above

As to “Benchmark antibody 1 (Opdivo, Nivolumab)”, the IC50 in [1] worked out at 0.534 nM; in assay [5] it was 0.585 nM; in [7], 0.95 nM; in assay [8], 0.544 nM; in assay [9] it was 0.47 nM. The concentration for a half-maximal effect (EC50) in assay [2] is 1.98 nM; in assay [6], 0.409 to 0.749 nM; in assay [10], 0.55 nM. The values for the dissociation constant (Kd) in assay [3] and in assay [4] were 2.23 nM and 2.87 nM, respectively. In addition, the off-rate constant (koff) is 0.000672 s⁻¹ in [3] and 0.00116 s⁻¹ in assay [4]. In addition, the results for the kon in assay [3] and in [4] were 301000 M⁻¹ s⁻¹ and 405000 M⁻¹ s⁻¹, respectively.
